Assay [1] addresses CRISPR-associated adenosine deaminase 1 (Cad1), hexa-histidyl tagged, full length (unknown Bacteroidales bacterium). In words: SEC-MALS; Superdex 200 10/300 increase column in buffer A (25 mM Hepes pH 8, 200 mM NaCl, 2 mM beta-mercaptoethanol, 5% glycerol); full-length Cad1 at 20 uM, apo and also after incubation with cA4 or cA6, ATP and MgCl2 (1:5:50:50) at 37 C. Background: In gel filtration, larger molecules generally elute earlier.

Assay [2] concerns the target Cad1 E408A mutant (unknown Bacteroidales bacterium). Described as above.
In assay [3] the target is Cad1 K342A mutant (unknown Bacteroidales bacterium). Described as above.
The target in assay [4] is CRISPR-associated adenosine deaminase 1 (Cad1). In words: ITC; co-crystal structure at […] Å. It counts as binding, Bacteroidales bacterium. (Isothermal titration calorimetry measures the heat released or taken up as one component is titrated into another.)
The target in assay [5] is hexa-histidyl-tagged CARF domain of Cad1 (residues 1-185) (unknown Bacteroidales bacterium). In words: SEC-MALS; Superdex 200 10/300 increase column in buffer A (25 mM Hepes pH 8, 200 mM NaCl, 2 mM beta-mercaptoethanol, 5% glycerol); full-length Cad1 at 20 uM, apo and also after incubation with cA4 or cA6, ATP and MgCl2 (1:5:50:50) at 37 C.
The target of assay [6] is Cad1 W349A mutant (unknown Bacteroidales bacterium). Described as above.

Where “and” joins values, the source holds several entries; their conditions need not be identical. Equal entries are not always repeated.

As a reminder, the stoichiometry N is a count of units in the complex or per binding partner. For “CRISPR-associated adenosine deaminase 1 (Cad1), hexa-histidyl tagged, full length (enzyme)”, the stoichiometry N in assay [1] is 6 and 2.

Consider Cad1 E408A mutant (enzyme), for which, in assay [2], the stoichiometry N was 6. With Cad1 K342A mutant (enzyme), the stoichiometry N in assay [3] was determined as 6. For orientation: Kd means the constant that tells how readily two partners part at equilibrium. A lower Kd goes with higher affinity. Regarding `Nc1ncnc2c1ncn2[C@@H]1O[C@@H]2COP(=O)(O)O[C@H]3[C@@H](O)[C@H](n4cnc5c(N)ncnc54)O[C@@H]3COP(=O)(O)O[C@H]3[C@@H](O)[C@H](n4cnc5c(N)ncnc54)O[C@@H]3COP(=O)(O)O[C@H]3[C@@H](O)[C@H](n4cnc5c(N)ncnc54)O[C@@H]3COP(=O)(O)O[C@H]3[C@@H](O)[C@H](n4cnc5c(N)ncnc54)O[C@@H]3COP(=O)(O)O[C@H]3[C@@H](O)[C@H](n4cnc5c(N)ncnc54)O[C@@H]3COP(=O)(O)O[C@H]2[C@H]1O` [cA6], the Kd in assay [4] is 30 nM. Consider “hexa-histidyl-tagged CARF domain of Cad1 (residues 1-185) (domain or fragment)”, for which, in assay [5], the stoichiometry N amounted to 2. In turn, Cad1 W349A mutant (enzyme) gave a stoichiometry N in assay [6] of 2.
